Assay in all cases: SPR
For experiment [1], the target named is T1, FcgRIIa H (human, UniProt P12318).
T1 chain: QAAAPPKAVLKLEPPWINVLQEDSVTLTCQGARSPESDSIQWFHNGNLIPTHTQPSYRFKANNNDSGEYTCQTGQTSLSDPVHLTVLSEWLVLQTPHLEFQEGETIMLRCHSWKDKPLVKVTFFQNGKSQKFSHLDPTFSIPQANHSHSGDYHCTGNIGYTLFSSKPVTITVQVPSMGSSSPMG

The target of experiment [2] is T2, FcgRIa (human, UniProt P12314).
T2 chain: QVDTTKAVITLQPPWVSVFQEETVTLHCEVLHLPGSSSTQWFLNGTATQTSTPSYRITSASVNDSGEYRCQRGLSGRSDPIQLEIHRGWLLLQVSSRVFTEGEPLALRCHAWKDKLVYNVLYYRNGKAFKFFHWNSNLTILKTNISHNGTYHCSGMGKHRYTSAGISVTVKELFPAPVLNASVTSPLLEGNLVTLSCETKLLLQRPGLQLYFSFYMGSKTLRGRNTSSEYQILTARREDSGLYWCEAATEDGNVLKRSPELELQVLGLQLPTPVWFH

The target in experiment [3] is T3, FcgRIIb (human, UniProt P31994).
T3 chain: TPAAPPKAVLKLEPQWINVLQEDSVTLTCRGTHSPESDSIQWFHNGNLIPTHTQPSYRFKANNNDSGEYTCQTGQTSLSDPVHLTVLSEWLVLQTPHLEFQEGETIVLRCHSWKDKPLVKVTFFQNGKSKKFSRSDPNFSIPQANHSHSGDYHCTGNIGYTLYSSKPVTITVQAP

For experiment [4], the target named is T4, FcgRIIIa F (human, UniProt P08637).
Experiment [5] concerns the target T5, FcgRIIIa V (human, UniProt P08637).
In experiment [6] the target is T6, FcgRIIa R (human, UniProt P12318).
T6 chain: T1 chain with H134R

In experiment [7] the target is T6, FcgRIIa R.
In experiment [8] the target is T2, FcgRIa.
Experiment [9] concerns the target T5, FcgRIIIa V. The source holds these as a separate data set.
The target of experiment [10] is T1, FcgRIIa H.
The target in experiment [11] is T3, FcgRIIb.
In experiment [12] the target is T4, FcgRIIIa F. This is another data set of the same source.

Residue numbers refer to the chain shown, from its start. Like-named read-outs stand apart in the source and are kept apart here.

T4 sequence (P08637 17-208): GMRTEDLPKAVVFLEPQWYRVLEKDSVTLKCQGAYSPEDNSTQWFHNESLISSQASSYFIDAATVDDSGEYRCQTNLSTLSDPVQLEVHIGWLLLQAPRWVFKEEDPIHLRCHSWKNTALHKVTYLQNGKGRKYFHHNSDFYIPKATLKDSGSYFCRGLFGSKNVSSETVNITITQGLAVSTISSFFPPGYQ
T5 sequence (P08637 17-208 F176V): as the sequence (P08637 17-208) above, with F160V counted along it

B1: H240-Kn166/H240-Hl170/L73-k0 (antibody)
chain 1: QDQLVQSGAEVKKPGASVKVSCKASGFNIKDTYIQWVRQAPGQGLEWMGRIDPLRKQTKYREKFEGRVTITADTSTNTAYMELSSLRSEDTAVYYCVRSGREFDYWGQGTLVTVSSASTKGPSVFPLAPSSKSTSGGTAALGCLVKDYFPEPVTVSWNSGALTSGVHTFPAVLQSSGLYSLSSVVTVPSSSLGTQTYICNVNHKPSNTKVDKKVEPKSCDKTHTCPPCPAPEYYWGPMVFLFPPKPKDTLMISRTPEVTCVVVDVSDEDPEVKFNWYVDGVEVHNAKTKPREEQYNATYRVVSVLTVLHQDWLNGKEYKCKVSNKDAPAPIEKTISKAKGQPREPQVCTLPPSRDELTKNQVSLWCLVKGFYPSDIAVEWESNGQPENNYKTTPPVLDSDGSFFLYSKLTVDKSRWQQGNVFSCSVMHEALHNHYTQKSLSLSP
chain 2: QDQLVQSGAEVKKPGASVKVSCKASGFNIKDTYIQWVRQAPGQGLEWMGRIDPLRKQTKYREKFEGRVTITADTSTNTAYMELSSLRSEDTAVYYCVRSGREFDYWGQGTLVTVSSASTKGPSVFPLAPSSKSTSGGTAALGCLVKDYFPEPVTVSWNSGALTSGVHTFPAVLQSSGLYSLSSVVTVPSSSLGTQTYICNVNHKPSNTKVDKKVEPKSCDKTHTCPPCPAPELLGGPSVFLFPPKPKDTLMISRTPEVTCVVVDVSHEEPEVKFNWYVDGVEVHNAKTKPREEQYNSTYRVVSVLTVLHQDWLNGKEYKCKVSNDAAPKPIEETISKAKGQPREPQVYTLPPSRCELTKNQVSLSCAVKGFYPSDIAVEWESNGQPENNYKTTPPVLDSDGSFFLVSKLTVDKSRWQQGNVFSCSVMHEALHNHYTQKSLSLSP
chain 3: DIQMTQSPSSLSASVGDRVTITCRASQDIHKYIAWYQQKPGQAPRLLIQYTSTLQPGVPSRFSGSGSGTDYTFTISSLQPEDIATYYCLQYEQLRTFGGGTKVEIKRTVAAPSVFIFPPSDEQLKSGTASVVCLLNNFYPREAKVQWKVDNALQSGNSQESVTEQDSKDSTYSLSSTLTLSKADYEKHKVYACEVTHQGLSSPVTKSFNRGEC
Regarding B1, the dissociation constant Kd amounted to 22 nM with FcgRIIa H [1]; 0.066 nM with FcgRIa [2]; 200 nM with FcgRIIb [3]; 4.2 nM in the experiment with FcgRIIIa F [4]; 1 nM with FcgRIIIa V [5]; 31 nM in the experiment with FcgRIIa R [6].

B2: H240-Kn149/H240-Hl068/L73-k0 (antibody)
chain 1: B1 chain 1 with A327W, K333L
chain 2: B1 chain 2 with A327L
chain 3: B1 chain 3
Turning to B2, the dissociation constant (Kd) worked out at 26 nM in the experiment with FcgRIIa H [1]; 0.38 nM in the experiment with FcgRIa [2]; 150 nM with FcgRIIb [3]; 1.5 nM with FcgRIIIa F [4]; 0.32 nM in the experiment with FcgRIIIa V [5]; 19 nM in the experiment with FcgRIIa R [6].

B3: H240-Kn120/H240-Hl174/L73-k0 (antibody)
chain 1: B1 chain 1 with A327L
chain 2: B1 chain 2 with A327L, I331E
chain 3: B1 chain 3
Turning to B3, the equilibrium dissociation constant (Kd) with FcgRIIa H [1] was found to be 55 nM; with FcgRIa [2], 0.14 nM; with FcgRIIb [3], 130 nM; with FcgRIIIa F [4], 0.51 nM; in the experiment with FcgRIIIa V [5], 0.036 nM; in the experiment with FcgRIIa R [6] it was 30 nM.

B4: H240-Kn138/H240-Hl068/L73-k0 (antibody)
chain 1: B1 chain 1 with A327W
chain 2: B1 chain 2 with A327L
chain 3: B1 chain 3
For B4, the Kd with FcgRIIa H [1] worked out at 25 nM; with FcgRIa [2] it was 0.16 nM; with FcgRIIb [3], 130 nM; in the experiment with FcgRIIIa F [4] it was 3.7 nM; with FcgRIIIa V [5], 0.43 nM; with FcgRIIa R [6] it was 19 nM.

B5: H240-Kn120/H240-Hl150/L73-k0 (antibody)
chain 1: B1 chain 1 with A327L
chain 2: B1 chain 2 with A327L, I331T
chain 3: B1 chain 3
As for B5, the dissociation constant (Kd) amounted to 35 nM with FcgRIIa H [1]; 0.39 nM with FcgRIa [2]; 98 nM in the experiment with FcgRIIb [3]; 3 nM in the experiment with FcgRIIIa F [4]; 0.57 nM in the experiment with FcgRIIIa V [5]; 20 nM with FcgRIIa R [6].

B6: H240-Kn120/H240-Hl170/L73-k0 (antibody)
chain 1: B1 chain 1 with A327L
chain 2: B1 chain 2
chain 3: B1 chain 3
Turning to B6, the Kd in the experiment with FcgRIIa H [1] was 18 nM; with FcgRIa [2], 0.19 nM; in the experiment with FcgRIIb [3], 67 nM; with FcgRIIIa F [4], 3.9 nM; in the experiment with FcgRIIIa V [5], 0.93 nM; in the experiment with FcgRIIa R [6], 8.6 nM.

B7: H240-Kn227/H240-Hl210/L73-k0 (antibody)
chain 1: B1 chain 1 with Y233E, Y234Q, M238I, D269E, D326A, A327L
chain 2: B1 chain 2 with A327L, K329A
chain 3: B1 chain 3
Regarding B7, the Kd with FcgRIIa R [7] is 260 nM; with FcgRIa [8] it was 0.17 nM; with FcgRIIIa V [9], 0.91 nM; with FcgRIIa H [10], 230 nM; with FcgRIIb [11] it was 2500 nM; in the experiment with FcgRIIIa F [12], 4.4 nM.

B8: H240-Kn120/H240-Hl182/L73-k0 (antibody)
chain 1: B1 chain 1 with A327L
chain 2: B1 chain 2 with A230H, A327L
chain 3: B1 chain 3
As for B8, the Kd with FcgRIIa H [1] is 77 nM; with FcgRIa [2], 0.18 nM; with FcgRIIb [3] it was 240 nM; with FcgRIIIa F [4], 3.1 nM; in the experiment with FcgRIIIa V [5], 0.29 nM; with FcgRIIa R [6] it was 40 nM.

B9: H240-Kn172/H240-Hl177/L73-k0 (antibody)
chain 1: B1 chain 1 with A327L, I331M
chain 2: B1 chain 2 with A327L, I331Q
chain 3: B1 chain 3
In the case of B9, the dissociation constant (Kd) with FcgRIIa H [1] came to 57 nM; with FcgRIa [2] it was 0.25 nM; in the experiment with FcgRIIb [3], 160 nM; in the experiment with FcgRIIIa F [4], 2 nM; with FcgRIIIa V [5], 0.22 nM; with FcgRIIa R [6] it was 29 nM.

B10: H240-Kn173/H240-Hl068/L73-k0 (antibody)
chain 1: B1 chain 1 with A327L, I331Q
chain 2: B1 chain 2 with A327L
chain 3: B1 chain 3
B10: the dissociation constant (Kd) was 57 nM with FcgRIIa H [1]; 0.12 nM in the experiment with FcgRIa [2]; 280 nM in the experiment with FcgRIIb [3]; 1.8 nM with FcgRIIIa F [4]; 0.4 nM with FcgRIIIa V [5]; 40 nM in the experiment with FcgRIIa R [6].

B11: H240-Kn138/H240-Hl147/L73-k0 (antibody)
chain 1: B1 chain 1 with A327W
chain 2: B1 chain 2 with A327W
chain 3: B1 chain 3
In the case of B11, the Kd with FcgRIIa H [1] was 130 nM; in the experiment with FcgRIa [2], 0.31 nM; with FcgRIIb [3] it was 110 nM; in the experiment with FcgRIIIa F [4], 22 nM; in the experiment with FcgRIIIa V [5], 16 nM; in the experiment with FcgRIIa R [6] it was 11 nM.

B12: H240-Kn178/H240-Hl068/L73-k0 (antibody)
chain 1: B1 chain 1 with A327L, K333Y
chain 2: B1 chain 2 with A327L
chain 3: B1 chain 3
B12: the Kd came out at 65 nM in the experiment with FcgRIIa H [1]; 0.23 nM with FcgRIa [2]; 110 nM with FcgRIIb [3]; 1.4 nM in the experiment with FcgRIIIa F [4]; 0.19 nM in the experiment with FcgRIIIa V [5]; 26 nM with FcgRIIa R [6].

By Kd is commonly meant the concentration at which binding is half-saturated.

These data come from patent publication US10766960 (dated 2020).
